US20220323386A1 (UNIVERSITY OF SOUTHERN CALIFORNIA, published 2022)

Biological target: neurogenic locus notch homolog protein 1 (NOTCH1) (UniProt P46531 19-2555, limits assumed)
Assay: large-scale immunoaffinity purification and LC-MS analysis

neurogenic locus notch homolog protein 1 (NOTCH1), sequence (P46531 19-2555 limits assumed): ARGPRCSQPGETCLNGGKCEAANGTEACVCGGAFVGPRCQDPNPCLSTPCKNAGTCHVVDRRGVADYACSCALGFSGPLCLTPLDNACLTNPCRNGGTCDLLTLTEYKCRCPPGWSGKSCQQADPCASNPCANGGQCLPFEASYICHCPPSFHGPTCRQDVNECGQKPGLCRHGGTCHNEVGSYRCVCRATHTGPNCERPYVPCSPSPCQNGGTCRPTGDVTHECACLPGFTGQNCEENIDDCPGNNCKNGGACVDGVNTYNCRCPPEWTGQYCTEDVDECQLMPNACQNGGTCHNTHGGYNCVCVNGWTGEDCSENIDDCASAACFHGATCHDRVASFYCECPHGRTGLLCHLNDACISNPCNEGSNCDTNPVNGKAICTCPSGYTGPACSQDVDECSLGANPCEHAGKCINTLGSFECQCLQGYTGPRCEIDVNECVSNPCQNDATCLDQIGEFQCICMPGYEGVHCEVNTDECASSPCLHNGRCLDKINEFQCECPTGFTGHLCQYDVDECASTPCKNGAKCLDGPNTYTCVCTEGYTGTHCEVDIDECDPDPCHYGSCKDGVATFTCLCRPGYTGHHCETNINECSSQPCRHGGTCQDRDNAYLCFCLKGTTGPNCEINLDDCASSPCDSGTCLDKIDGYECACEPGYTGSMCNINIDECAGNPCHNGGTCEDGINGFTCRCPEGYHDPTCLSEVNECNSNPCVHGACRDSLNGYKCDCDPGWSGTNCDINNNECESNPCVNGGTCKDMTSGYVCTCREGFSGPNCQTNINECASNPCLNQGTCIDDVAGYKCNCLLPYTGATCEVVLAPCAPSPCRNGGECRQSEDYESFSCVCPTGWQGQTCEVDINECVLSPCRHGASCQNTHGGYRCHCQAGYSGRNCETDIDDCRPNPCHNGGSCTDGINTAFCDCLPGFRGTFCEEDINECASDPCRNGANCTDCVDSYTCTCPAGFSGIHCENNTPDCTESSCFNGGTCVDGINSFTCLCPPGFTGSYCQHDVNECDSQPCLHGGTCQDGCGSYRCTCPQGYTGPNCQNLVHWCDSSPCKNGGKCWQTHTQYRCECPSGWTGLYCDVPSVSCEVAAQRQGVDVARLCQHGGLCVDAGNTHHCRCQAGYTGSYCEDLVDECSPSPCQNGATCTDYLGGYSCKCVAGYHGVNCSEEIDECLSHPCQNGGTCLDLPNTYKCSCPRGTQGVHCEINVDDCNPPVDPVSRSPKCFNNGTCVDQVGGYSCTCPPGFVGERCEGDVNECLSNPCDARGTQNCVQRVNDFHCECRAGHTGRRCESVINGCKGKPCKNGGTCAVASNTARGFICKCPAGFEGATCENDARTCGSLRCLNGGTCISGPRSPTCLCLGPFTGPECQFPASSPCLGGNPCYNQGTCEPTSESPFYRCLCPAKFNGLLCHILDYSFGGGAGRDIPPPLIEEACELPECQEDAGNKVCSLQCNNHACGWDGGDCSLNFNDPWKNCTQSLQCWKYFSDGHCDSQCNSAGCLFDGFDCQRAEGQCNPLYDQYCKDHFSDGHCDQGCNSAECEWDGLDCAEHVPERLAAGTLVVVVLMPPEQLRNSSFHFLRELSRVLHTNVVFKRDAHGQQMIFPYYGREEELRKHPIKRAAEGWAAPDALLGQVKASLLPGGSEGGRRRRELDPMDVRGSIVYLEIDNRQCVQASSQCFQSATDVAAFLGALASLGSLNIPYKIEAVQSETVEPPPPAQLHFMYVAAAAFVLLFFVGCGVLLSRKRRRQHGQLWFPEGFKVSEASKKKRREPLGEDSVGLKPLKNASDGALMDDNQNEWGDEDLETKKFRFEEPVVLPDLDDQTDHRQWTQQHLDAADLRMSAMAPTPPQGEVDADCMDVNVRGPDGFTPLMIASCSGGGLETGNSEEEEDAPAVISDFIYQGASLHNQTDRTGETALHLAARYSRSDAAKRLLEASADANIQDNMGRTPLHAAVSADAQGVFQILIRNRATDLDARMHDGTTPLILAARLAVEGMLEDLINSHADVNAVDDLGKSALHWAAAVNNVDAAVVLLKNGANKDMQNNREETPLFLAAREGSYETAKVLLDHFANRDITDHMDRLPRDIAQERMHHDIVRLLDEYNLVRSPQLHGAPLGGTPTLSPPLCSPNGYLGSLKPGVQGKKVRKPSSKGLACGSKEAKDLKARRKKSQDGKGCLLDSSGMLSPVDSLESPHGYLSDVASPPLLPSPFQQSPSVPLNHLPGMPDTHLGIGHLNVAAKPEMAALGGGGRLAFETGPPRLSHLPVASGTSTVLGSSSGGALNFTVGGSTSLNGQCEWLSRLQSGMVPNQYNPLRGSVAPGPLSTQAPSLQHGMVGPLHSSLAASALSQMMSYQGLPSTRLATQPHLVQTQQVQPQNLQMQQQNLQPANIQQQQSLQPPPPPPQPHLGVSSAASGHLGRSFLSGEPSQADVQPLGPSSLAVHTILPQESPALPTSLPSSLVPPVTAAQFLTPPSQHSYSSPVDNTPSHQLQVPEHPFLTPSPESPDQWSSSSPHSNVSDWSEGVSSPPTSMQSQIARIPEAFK

B1: Tre2-Bub2-Cdc16 domain family member 15 (TBC1D15) (other, UniProt Q8TC07 1-691, looked up)
chain: MAAAGVVSGKIIYEQEGVYIHSSCGKTNDQDGLISGILRVLEKDAEVIVDWRPLDDALDSSSILYARKDSSSVVEWTQAPKERGHRGSEHLNSYEAEWDMVNTVSFKRKPHTNGDAPSHRNGKSKWSFLFSLTDLKSIKQNKEGMGWSYLVFCLKDDVVLPALHFHQGDSKLLIESLEKYVVLCESPQDKRTLLVNCQNKSLSQSFENLLDEPAYGLIQAGLLDRRKLLWAIHHWKKIKKDPYTATMIGFSKVTNYIFDSLRGSDPSTHQRPPSEMADFLSDAIPGLKINQQEEPGFEVITRIDLGERPVVQRREPVSLEEWTKNIDSEGRILNVDNMKQMIFRGGLSHALRKQAWKFLLGYFPWDSTKEERTQLQKQKTDEYFRMKLQWKSISQEQEKRNSRLRDYRSLIEKDVNRTDRTNKFYEGQDNPGLILLHDILMTYCMYDFDLGYVQGMSDLLSPLLYVMENEVDAFWCFASYMDQMHQNFEEQMQGMKTQLIQLSTLLRLLDSGFCSYLESQDSGYLYFCFRWLLIRFKREFSFLDILRLWEVMWTELPCTNFHLLLCCAILESEKQQIMEKHYGFNEILKHINELSMKIDVEDILCKAEAISLQMVKCKELPQAVCEILGLQGSEVTTPDSDVGEDENVVMTPCPTSAFQSNALPTLSASGARNDSPTQIPVSSDVCRLTPA
notes: TBC1D15 as present in cell lysates (co-IP); also called TBC1 domain family member 15
binding result: binds
